# Measurements from CN106749644A.
# B1: 全人源抗HCV的单克隆中和抗体TRN1001 (antibody, V domains shown)
# VH: QVQLVQSGAEVKKPGSSVKVSCKVSGDRINNYAINWVRQAPGQGLEWMGRIIGIVGLANYAQKFQGRVTMTADKSTSTGYMELSTLKSDDTAMYYCATDNRILAAAPSHYSYSMDLWGPGTTVTVSS
# VL: QSALTQPASVSGSPGQSITISCTGTSSDVGGDNYVSWYQQYTGKAPKVMIYDVSKRPSGVSNRFSGSKSGNTASLTISGLQAEDEADYYCCSYTSDNSYVFGSGTKVIVL
# Key:
# [1] = molecular target: 不同的HCV包膜糖蛋白 (on HCV pseudovirus, HCVpp); test: cell-based or functional assay
# [2] = molecular target: HCV-E2蛋白 (Hepatitis C virus (HCV)); test: SPR, BiaCore X-100; antibody captured by goat anti-human IgG on CM5 chip, HCV-E2 as analyte
binder,measurement,setting,value
B1,"Luciferase活性 (荧光值), HCVpp infection of Huh7 cells",[1],100%
same,Kd,[2],20.3 nM
same,koff,[2],0.00011 s⁻¹
same,kon,[2],5440 M⁻¹ s⁻¹
